Patent US20250043019A1 (Janssen / Centocor, published 2025)
Positions count from the first letter of the chain named. Numbers in names are those of the source.

B1: C20B648 anti-CD20 binder (antibody, V domains shown)
VH: QVQLVQSGAEVKKPGSSVKVSCKASGYTFSSYNMHWVRQAPGQGLEWMGAIYPGAGDTSYAQKFQGRVTITADESTSTAYMELSSLRSEDTAVYYCARSNYYGSSGWYFDVWGKGTTVTVSS
VL: EIVLTQSPATLSLSPGERATLSCRASLSVSSMHWYQQKPGQAPRLLIYATSNLASGIPARFSGSGSGTDFTLTISSLEPEDFAVYYCQQWIFNPPTFGGGTKVEIK
B2: C923B74 CD79bxCD20xCD3 trispecific antibody (other)
heavy: QVQLQQSGPGLVKPSQTLSLTCAISGDSVSSNSATWNWIRQSPSRGLEWLGRTYYRSKWYNDYTVSVKSRITINPDTSKNQFSLQLNSVTPEDTAVYYCTRVDIAFDYWGQGTLVTVSSASTKGPSVFPLAPSSKSTSGGTAALGCLVKDYFPEPVTVSWNSGALTSGVHTFPAVLQSSGLYSLSSVVTVPSSSLGTQTYICNVNHKPSNTKVDKKVEPKSCDKTHTCPPCPAPEAAGGPSVFLFPPKPKDTLMISRTPEVTCVVVSVSHEDPEVKFNWYVDGVEVHNAKTKPREEQYNSTYRVVSVLTVLHQDWLNGKEYKCKVSNKALPAPIEKTISKAKGQPREPQVYTLPPSREEMTKNQVSLSCAVKGFYPSDIAVEWESNGQPENNYKTTPPVLDSDGSFFLVSKLTVDKSRWQQGNVFSCSVMHEALHNRFTQKSLSLSPGK
light: QTVVTQPPSVSEAPRQRVTISCSGSSSNIGNHGVNWYQQLPGKAPKLLIYNDDLLPSGVSDRFSGSTSGTSGSLAISGLQSEDEADYYCAAWDDSLNGVVFGGGTKLTVLGQPKAAPSVTLFPPSSEELQANKATLVCLISDFYPGAVTVAWKADSSPVKAGVETTTPSKQSNNKYAASSYLSLTPEQWKSHRSYSCQVTHEGSTVEKTVAPTECS
chain: EIVLTQSPATLSASPGERVTLSCSASSSVSYMNWYQQKPGQAPRRWIYDSSKLASGVPARFSGSGSGRDYTLTISSLEPEDFAVYYCQQWSRNPPTFGGGTKVEIKGGSEGKSSGSGSESKSTGGSQVQLVQSGAEVKKPGSSVKVSCKASGYTFTRSTMHWVKQAPGQGLEWIGYINPSSAYTNYNQKFQGRVTLTADKSTSTAYMELSSLRSEDTAVYYCASPQVHYDYAGFPYWGQGTLVTVSSEPKSSDKTHTCPPCPAPEAAGGPSVFLFPPKPKDTLMISRTPEVTCVVVSVSHEDPEVKFNWYVDGVEVHNAKTKPREEQYNSTYRVVSVLTVLHQDWLNGKEYKCKVSNKALPAPIEKTISKAKGQPREPQVYTLPPSREEMTKNQVSLWCLVKGFYPSDIAVEWESNGQPENNYKTTPPVLDSDGSFFLYSKLTVDKSRWQQGNVFSCSVMHEALHNHYTQKSLSLSPGKGGSEGKSSGSGSESKSTGGSAIQLTQSPSSLSASVGDRVTITCRASSSVSYIHWFQQKPGKAPKPLIYATSNLASGVPSRFSGSGSGTDFTLTISSLQPEDFATYYCQQWTSNPPTFGQGTKLEIKGGSEGKSSGSGSESKSTGGSQVQLVQSGAEVKKPGSSVKVSCKASGYTFTSYNMHWVRQAPGQGLEWMGAIYPGNGDTSYAQKFQGRVTITADKSTSTAYMELSSLRSEDTAVYYCARSTYYGGDWYFNVWGQGTLVTVSS
notes: Trispecific IgG1; also called CD9B330-N31S / CD3B2030-N106A-scFv-LH-C20B22

Columns and labels:
[1] = target: T1, human CD20 on the cell surface (human, UniProt P11836 1-297); experiment: flow cytometry, human B cells
T1 construct: whole, on cells; On B-lymphoma lines, primary B cells, K562 CD20 or HEK293 transfectants; also called MS4A1; B-lymphocyte antigen CD20
T1 sequence (looked up): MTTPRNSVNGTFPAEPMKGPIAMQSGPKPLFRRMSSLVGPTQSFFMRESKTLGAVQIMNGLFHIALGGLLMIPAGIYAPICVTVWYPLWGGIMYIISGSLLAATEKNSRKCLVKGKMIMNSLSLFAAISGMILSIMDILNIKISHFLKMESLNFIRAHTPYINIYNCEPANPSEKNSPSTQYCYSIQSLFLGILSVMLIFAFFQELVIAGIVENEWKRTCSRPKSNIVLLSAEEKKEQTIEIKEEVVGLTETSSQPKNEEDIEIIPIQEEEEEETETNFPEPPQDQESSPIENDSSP

[2] = target: T2, cynomolgus monkey CD20 on B cells (cynomolgus monkey, UniProt M4ZHZ6 1-297); experiment: flow cytometry, cynomolgus B cells
T2 construct: whole, on cells
T2 sequence: T1 sequence (looked up) with S25P, F31L, T51A, A157V, K217R, N226S, I227V, T239V

[3] = target: T3, human CD79b and CD20 co-expressed on the surface of B-lymphoma cell lines or primary B cells (human, UniProt P11836 1-297); experiment: cell-based or functional assay
T3 sequence 1: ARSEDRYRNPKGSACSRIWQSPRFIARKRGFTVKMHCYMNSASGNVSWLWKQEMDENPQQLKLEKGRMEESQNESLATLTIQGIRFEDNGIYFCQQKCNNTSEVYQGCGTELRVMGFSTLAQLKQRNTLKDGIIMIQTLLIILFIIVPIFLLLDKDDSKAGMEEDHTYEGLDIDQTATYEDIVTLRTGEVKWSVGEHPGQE
T3 sequence 2: T1 sequence (looked up)

[4] = target: T3, human CD79b and CD20 co-expressed on …; experiment: cell-based or functional assay; remark: listed apart in the source
[5] = target: T3, human CD79b and CD20 co-expressed on …; experiment: cell-based or functional assay; remark: listed apart in the source
[6] = target: T3, human CD79b and CD20 co-expressed on …; experiment: cell-based or functional assay; remark: listed apart in the source
[7] = target: T3, human CD79b and CD20 co-expressed on …; experiment: cell-based or functional assay; remark: listed apart in the source
[8] = target: T3, human CD79b and CD20 co-expressed on …; experiment: cell-based or functional assay; remark: listed apart in the source
[9] = target: T4, cynomolgus monkey CD79b antigen (cynomolgus monkey); experiment: SPR Biacore 8k, cyno CD79b injected up to 3000 nM
T4 construct: also called cyno CD79b; CD9W1.001
Procedure, shortened: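 Antibodies captured on anti-human Fc C1 chip, CD79b extracellular domain injected in HBSP+ at 25 °C; association 2 or 3 min, dissociation 30 min. Double-referenced sensorgrams fitted to a 1:1 Langmuir model for on-rate, off-rate and affinity.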

[10] = target: T5, recombinant extracellular domain of human CD79b, short isoform (human, UniProt P40259 29-159); experiment: SPR Biacore 8k, antibody captured by anti-Fc, 25 C
T5 chain: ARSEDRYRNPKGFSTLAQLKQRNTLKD
Procedure: (§1) General Protocol for SPR Affinity Assessment: Affinity assessment of the bispecific trispecific constructs against human CD79b were measure using recombinantly expressed extracellular domain of CD79b short and long isoforms (CD9W7.001 and CD9W8.001, respectively) by Surface Plasmon Resonance (SPR) using a Biacore 8k SPR system (Biacore) at 25° C. in HBSP+ buffer. Cross-reactivity of the same antibody panel was also assessed against cyno and mouse antigens (CD9W1.001 and CD9W105.001, respectively). Briefly, a C1 sensor chip was immobilized with anti-human Fc (target immobilization levels of >400 RU) using vendor recommended amino coupling protocol. […] The association and dissociation phases were measured for 2 or 3 minutes and 30 minutes, respectively.
(§2) The raw binding sensorgrams were processed using Biacore Insight software (Biacore) by double-referencing and the processed sensorgrams were analyzed for cross-reactivity and fitted to a 1:1 Langmuir model to obtain on-rates, off-rates and affinities.

[11] = target: T6, recombinant extracellular domain of human CD79b, long isoform (human, UniProt P40259 29-159); experiment: SPR Biacore 8k, antibody captured by anti-Fc, 25 C
T6 construct: also called hu CD79b long
T6 sequence: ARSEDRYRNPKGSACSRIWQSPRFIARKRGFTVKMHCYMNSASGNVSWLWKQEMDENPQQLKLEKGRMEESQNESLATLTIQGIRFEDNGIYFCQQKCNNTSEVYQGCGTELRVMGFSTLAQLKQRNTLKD
Procedure: as §1, §2

[12] = target: T3, human CD79b and CD20 co-expressed on …; experiment: flow cytometry, HBL-1 cells (CD79b+ CD20+), 1 h 37 C
Procedure: (§3) All cells were washed with BD stain buffer (BD Biosciences; Cat #554657), centrifuged at 1200 RPM for 3 minutes, with supernatant discarded. Cells were then stained for 20 minutes at 4° C. with BD stain buffer containing AlexaFluor 647 labeled anti-human IgG secondary antibody (Jackson Immuno; Cat #109-606-098) at a 1:200 dilution along with Aqua Fixable Live/Dead stain (Invitrogen; Cat #L34957) at a 1:400 dilution. All cells were washed with BD stain buffer (BD Biosciences; Cat #554657), centrifuged at 1200 RPM for 3 mins, with supernatant discarded. Cells were analyzed using Intellicyt (Sartorius) flow cytometer and mean fluorescent intensity (MFI) was generated using Forcyt software (Sartorius). MFI was graphed and EC50 values generated using GraphPad PRISM v.8. Dose response curves were generated by transforming the x axis values using the formula […]. Data was then graphed using non-linear regression curve fit analysis “log(agonist) vs. response-variable slope (four parameter)”.

[13] = target: T3, human CD79b and CD20 co-expressed on …; experiment: flow cytometry, Carnaval cells (CD79b+ CD20+), 1 h 37 C
Procedure: as §3

[14] = target: T3, human CD79b and CD20 co-expressed on …; experiment: flow cytometry, OCI-LY10 cells (CD79b+ CD20+), 1 h 37 C
Procedure: as §3

| Binder | binding result [1] | binding result [2] | IC50, T-cell killing of HBL-1 (Incucyte) [3] [nM] | IC50, T-cell killing of OCI-Ly10 (Incucyte) [4] [nM] | IC50, CARNAVAL killing (Incucyte) [5] [nM] | IC50, Daudi killing (Incucyte) [6] [nM] | IC50, CARNAVAL killing, 72 h (FACS) [7] [nM] | IC50, HBL-1 killing, 72 h (FACS) [7] [nM] | IC50, OCI-LY10 killing, 72 h (FACS) [7] [nM] | Cmax (maximum cytotoxicity), donor 1 [8] [%] | Cmax (maximum cytotoxicity), donor 2 [8] [%] | Cmax (maximum cytotoxicity), donor 3 [8] [%] | EC50, autologous B-cell depletion, donor 1 [8] [nM] | EC50, autologous B-cell depletion, donor 2 [8] [nM] | Kd [9] [nM] | Kd [10] [nM] | Kd [11] [nM] | EC50 [12] [nM] | EC50 [13] [nM] | EC50 [14] [nM] |
| --- | --- | --- | --- | --- | --- | --- | --- | --- | --- | --- | --- | --- | --- | --- | --- | --- | --- | --- | --- | --- |
| B1 | binds | binds |  |  |  |  |  |  |  |  |  |  |  |  |  |  |  |  |  |  |
| B2 |  |  | 0.346 | 25.6 | 0.741 | 0.1 | 0.35 | 2.42 | 24.2 | 34 | 66 | 40 | 78 | 23 | > 3000 | 0.39 | 0.023 | 52 | 23 | 66 |
